Data on one molecule can be found in article PMC11183095 (2024).

This experiment has as its target Recombinant His-PGAM1 (human, UniProt P18669 1-254). Briefly: BLI. (BLI is a label-free optical method that tracks binding on a fibre tip over time.)

By Kd is commonly meant the concentration at which binding is half-saturated.

Sequence of Recombinant His-PGAM1 (P18669 whole entry): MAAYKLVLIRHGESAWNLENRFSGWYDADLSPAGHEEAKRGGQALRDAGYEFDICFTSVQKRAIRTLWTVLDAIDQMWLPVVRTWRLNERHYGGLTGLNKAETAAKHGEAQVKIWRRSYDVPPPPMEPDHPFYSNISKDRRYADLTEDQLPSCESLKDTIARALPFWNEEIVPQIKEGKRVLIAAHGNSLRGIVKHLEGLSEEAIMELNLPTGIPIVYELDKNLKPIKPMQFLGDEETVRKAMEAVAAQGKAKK

B1: Recombinant GST-PKM2 (enzyme)
chain: not shown
B1: the Kd was determined as 2.24 µM.
